Measurements reported in patent US20070298997A1, “Compounds useful in treating diabetic microvascular complications and age-related macular degeneration” (priority 2003, published 2007).
Where two headings read alike, the source gives them in different places.

Legend:
[1] = test system: rat Müller cell line, rMC-1; test: Quantification of viable cells by MTT assay, Müller cell line; type: cell-based; conditions: 5-160 nM, 72 h, P>0.05
Method: (§1) FIG. 2 illustrates the specific inhibition of endothelial cell proliferation by recombinant kallistatin. RCEC were treated with recombinant kallistatin at concentrations of 5,10, 20, 40, 80 and 160 nM for 72 h. Viable cells were quantified by MTT assay. […] This effect appeared to be kallistatin concentration-dependent, with an apparent IC50 of 50 nM (FIG. 2) which is similar to that of K5, a known angiogenic inhibitor (Zhang et al., 2001).
(§2) Quantification of viable cells: Cells were plated in 12-well plates in triplicate and cultured in the growth medium until they reached 60-70% of confluency. The culture medium was replaced with a medium containing 1% fetal bovine serum (FBS). Recombinant kallistatin was added to the cover medium to various concentrations and incubated with the cells for 72 h. The viable cells were quantified by the MTT (3-[4,5-dimethylthiazol-2-yl]-2,5-dephenyl tetrazolium bromid, Roche, Mannheim, Germany) assay following a protocol recommended by the manufacturer. The effect of kallistatin on viable cell number was analyzed using Student's t test.

VEGF binding to RCEC = test: VEGF binding assay (125I-VEGF); set-up: species or system bovine; conditions: 1 h, 0.5, 5 and 50 μg competitor (VEGF:kallistatin 1:5, 1:50, 1:500)
Method: FIG. 8 illustrates inhibition of VEGF binding to RCEC by kallistatin. […] To determine the competition between kallistatin and VEGF in RCEC binding, ^125I-VEGF was added to RCEC together with 0.5, 5 and 50 μg of unlabeled kallistatin to result in VEGF:kallistatin molar ratios of 1:5, 1:50 and 1:500, respectively.
VEGF binding assay: VEGF (PeproTech, Inc., Rocky Hill, N.J.) was labeled with 125I using the Chloromine T ^125I Labeling Kit (ICN Pharmaceuticals, Inc. Costa Mesa, Calif.) following a protocol recommended by the manufacturer. For the binding assay, RCEC were seeded in 12-well plates and cultured until 80% confluency was reached. The culture medium was replaced with serum-free medium. ^125I-VEGF was added to the medium, 2.5×10^5 CPM/well with and without different concentrations of kallistatin or recombinant plasminogen kringle 5 (K5) and incubated with the cells for 1 h. The medium was removed and cells washed three times with PBS. The cells were then lysed by the addition of 0.35 ml 10% SDS. The cell lysates were collected, and the 125I-VEGF bound to RCEC was quantified by a gamma counter.

[2] = test system: Retinal capillary endothelial cells (RCEC); test: Quantification of viable cells by MTT assay, RCEC; type: cell-based, bovine
Method: as §1
FIG. 7 illustrates the effects of B1 and B2 kinin receptor antagonists on RCEC. In order to test whether the anti-angiogenic activity of kallistatin is via reducing kinin production by inhibiting kallikrein activity, RCEC were treated with 5 μM des-Arg^9-[Leu^8]-bradykinin, a specific antagonist of the B1 kinin receptor or Hoe-140, a specific B2 kinin receptor antagonist, in the presence or absence of 40 nM kallistatin for 48 h, and viable cells were quantified by MTT assay.
as §2

[3] = test system: retinal neovascularization; type: in vivo, Brown Norway rats; conditions: for pre-retinal vascular cells: P<0.01
Method: Retinal neovascularization was induced in Brown Norway rats by exposure of newborn rats to hyperoxia as described previously (Gao et al., 2001). Kallistatin was injected intravitreally at P12, and the control eyes received the same volume of PBS. Rats were kept under normoxia for another 5 days, and retinal neovascularization was examined by fluorescein angiography (P17). The control eyes (PBS-injected) developed typical retinal neo-vascularization, including neovascular tufts, microaneurysms, enlarged non-perfusion regions and vascular leakage (FIG. 5a).
Induction of retinal neovascularization and intravitreal injection of kallistatin: Retinal neovascularization was induced as described by Smith et al. (Smith et al., 1994) with some modifications. Briefly, newborn pigmented Brown Norway rats at postnatal day 7 (P7) were exposed to hyperoxia (75% O2) for 5 days and then normoxia. Animals were anesthetized, and kallistatin was injected into the vitreous of the right eye through the pars plana using a glass capillary. The left eye received the same volume of PBS as the control. After injection, the animals were kept in normoxia for another 5 days for further analyses.
Retinal angiography with high molecular weight fluorescein and quantification of neovascularization: Retinal angiography was as described by Smith et al. (Smith et al., 1994). Briefly, rats were anesthetized and perfused with fluorescein via intra-ventricle injection of 50 mg/ml of high molecular weight (2×10^6) fluorescein isothiocyanate-dextran (Sigma, St. Louis, Mo.). The animals were immediately sacrificed, and the eyes were enucleated and fixed in 4% paraformaldehyde for 10 min. The retina was dissected free of the lens and vitreous and incubated in 4% paraformaldehyde for 3 h. The retina was cut and flat-mounted on a gelatin-coated slide. The vasculature was then examined under a fluorescent microscope (Axioplan2 Imaging, Zeiss).
Retinal neovascularization was quantified by counting pre-retinal vascular cells as previously described (Zhang et al., 2001). The average number of pre-retinal vascular nuclei was compared to the PBS control group by Student's t test.

RCEC = test: Quantitative analysis of apoptosis by Annexin V/PI flow cytometry; type: cell-based, bovine; conditions: 24 h, 40-640 nM
Method: To determine whether kallistatin might induce cell death, RCEC were incubated with different concentrations of kallistatin or 10 μM chochicine for 24 h, and the apoptotic cells were quantified using the Annexin V-flow cytometry method. Phosphatidylserine externalization is a characteristic of cells undergoing apoptosis. The Annexin V-FITC kit allows for fluorescent detection of Annexin V bound to apoptotic cells and quantitative determination by flow cytometry. The Annexin V-FITC kit uses Annexin V conjugated with fluorescein isothiocyante (FITC) to label phosphatidylserine sites on the membrane surface. The kit includes propidium iodide (PI) to label the cellular DNA in necrotic cells where the cell membrane has been totally compromised. This combination allows the differentiation among early apoptotic cells (Annexin V positive, PI negative), necrotic cells (Annexin V positive, PI positive), and viable cells (Annexin V negative, PI negative) which can be located in the lower right, upper right, and lower left quadrants of the cytograms, respectively (FIG. 4a). Because only cells that are Annexin V-positive and PI-negative are truly apoptotic cells, the percentage of this cell population was quantified.
Quantitative analysis of apoptosis by flow cytometry: RCEC were plated at a density of 10^5 cells/well in 6-well plates. […] The cells were subsequently counted by flow cytometry.

B1: kallistatin: Recombinant His-tagged rat kallistatin (serpin, SEQ ID NO:1) expressed in E. coli and affinity-purified (protein, listed as Homo sapiens)
chain: DGILGRDTLPHEDQGKGRQLHSLTLASINTDFTLSLYKKLALRNPDKNVVFSPLSISAALAILSLGAKDSTMEEILEVLKFNLTEITEEEIHHQGFGHLLQRLSQPEDQAEINTGSALFIDKEQPILSEFQEKTRALYQAEAFVADFKQCNEAKKFINDYVSNQTQGKIAELFSELDERTSMVLVNYLLFKGKWKVPFNPNDTFESEFYLDEKRSVKVPMMKIKDLTTPYIRDEELSCSVLELKYTGNASALFILPDQGKMQQVESSLQPETLKKWKDSLRPRIISELRMPKFSISTDYNLEEVLPELGIRKIFSQQADLSRITGTKNLHVSQVVHKAVLDVDETGTEGAAATAVTAALKSLPQTIPPLNFNRPFMLVITDNNGQSVFFMGKVTNPM
modifications: His tag
- inhibition of the Müller cell line (viable cells) [1]: did not result in any significant inhibition
- VEGF bound to RCEC (VEGF binding to RCEC): decreased in a kallistatin concentration-dependent manner
- viable cells vs control ([2]; 5 nM, 72 h, P<0.05): significantly fewer viable cells than the control cells
- viable cell numbers, % of the control ([2]; 40 nM, 48 h, P<0.01): approximately 50 % of the control
- IC50 ([2]; 72 h, read-out: apparent IC50, viable cells): 50 nM
- pre-retinal vascular cells ([3]; OIR rats, 12.5 μg per eye intravitreal): significantly decreased pre-retinal vascular cells
- pre-retinal vascular cells ([3]; OIR rats, 25 μg per eye intravitreal): significantly decreased pre-retinal vascular cells
- retinal vasculature by fluorescein angiography ([3]; OIR rats, intravitreal injection at P12, examined P17): apparent improvement in retinal vasculature
- retinal vasculature by fluorescein angiography, normal rats ([3]; rat, in vivo): did not result in any apparent difference in retinal vasculature
- apoptosis (Annexin V-positive, PI-negative cells) (RCEC): increases apoptosis in RCEC in a dose-dependent manner
